# Experimental data published in patent publication US20140303084.
# Where a chain is given by its changes, count along the chain named.
# Tests used:
# [1] = system: T1, RRAP-Sar-KLTCLASYCWLFWTGIA
# T1 sequence: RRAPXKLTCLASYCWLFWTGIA
# [2] = system: T2, TSGPFGFGGS SRAQG KLTCLASYCWLFWTGIA
# T2 sequence: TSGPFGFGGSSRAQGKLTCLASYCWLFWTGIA
# [3] = system: T3, PARGKERELM RRAPG KLTCLASYCWLFWTGIA
# T3 sequence: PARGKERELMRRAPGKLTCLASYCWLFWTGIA
# [4] = system: T4, (KLTCLASYCWLF)2═N-O-(CH2)3-O-N═
# T4 sequence: KLTCLASYCWLF
# [5] = system: T5, SKQGRPISSDrRAAGKLTCLASYCWLFWTGIA
# T5 sequence: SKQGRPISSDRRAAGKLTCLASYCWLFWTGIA
# rRAPGKLTCLASSCWLFWTGIA = system: T6, rRAPGKLTCLASSCWLFWTGIA
# T6 sequence: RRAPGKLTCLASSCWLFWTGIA
# k-MeLeu-TCLASYCWLA = system: T7, k-MeLeu-TCLASYCWLA
# T7 sequence: KLTCLASYCWLA
# [6] = system: T8, RRAPG-k-NMeLeu-TCLASYCWLFWTGIA
# T8 sequence: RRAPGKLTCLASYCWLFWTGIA
# RCAQSRLPWLVSYCWLFSPYGM = system: T9, RCAQSRLPWLVSYCWLFSPYGM
# T9 sequence: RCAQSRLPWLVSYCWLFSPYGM
# [7] = system: T10, CGGG-RRAPGKLT-Asp-LASY-Lys-WLFWTGIA
# T10 sequence: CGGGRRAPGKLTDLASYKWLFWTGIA
# GVEDRQLTCLASSCWVFSRHSV = system: T11, GVEDRQLTCLASSCWVFSRHSV
# T11 sequence: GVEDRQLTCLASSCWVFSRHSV
# Dpr-LTCLASYCWLF = system: T12, Dpr-LTCLASYCWLF
# T12 sequence: XLTCLASYCWLF
# [8] = system: T13, SKQGRPISPDrRAAGKLTCLaSYCWLFWTGIA
# T13 sequence: T5 sequence with S9P
# K-k-MeLeu-TCLASYCWLF = system: T14, K-k-MeLeu-TCLASYCWLF
# T14 sequence: KKLTCLASYCWLF
# [9] = system: T15, RRAPGKLTCLASYCWLF WAGFA ASTLAPAHHQ
# T15 sequence: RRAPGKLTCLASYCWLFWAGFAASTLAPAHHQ
# KITCLASYCWLF = system: T16, KITCLASYCWLF
# T16 sequence: KLTCLASYCWLF
# [10] = system: T17, RRAPGKLTCLASYACLFWTGIA-CONH2
# T17 sequence: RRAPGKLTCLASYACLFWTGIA
# [11] = system: T18, RRAPGKLT-Orn-LASY-Asp-WLFWTGIA-COOH
# T18 sequence: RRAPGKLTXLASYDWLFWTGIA
# Ac-KLTCLASYCWLF = system: T19, Ac-KLTCLASYCWLF
# T19 sequence: KLTCLASYCWLF
# KLTCLASYCFLF = system: T20, KLTCLASYCFLF
# T20 sequence: KLTCLASYCFLF
# KLTCLASYCALF = system: T21, KLTCLASYCALF
# T21 sequence: KLTCLASYCALF
# KLT-Dab-LASY-Glu-WLF = system: T22, KLT-Dab-LASY-Glu-WLF
# T22 sequence: KLTXLASYEWLF
# VSGTGRLTCVASYCWMFQLGIF = system: T23, VSGTGRLTCVASYCWMFQLGIF
# T23 sequence: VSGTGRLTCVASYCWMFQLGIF
# KLTCLKSYCWLF = system: T24, KLTCLKSYCWLF
# T24 sequence: KLTCLKSYCWLF
# [12] = system: T25, RRAPGKLTCLASYCWLFWTGIA-PEG4
# T25 sequence: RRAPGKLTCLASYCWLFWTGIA
# KLTCLAAYCWLF = system: T26, KLTCLAAYCWLF
# T26 sequence: KLTCLAAYCWLF
# HMQWGKLPCLASYCWLFWYGIG = system: T27, HMQWGKLPCLASYCWLFWYGIG
# T27 sequence: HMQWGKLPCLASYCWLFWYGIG
# compound 2 = system: T28, compound 2
# T28 sequence: KLTCLASYCWLF
# [13] = system: T29, RRAPGKLTCLASYCWLFWK(PEG2-Biotin)GIA
# T29 sequence: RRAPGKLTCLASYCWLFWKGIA
# [14] = system: T30, RRAPGKLTCLASYCWLF LTGWA RVPLPPRPHP
# T30 sequence: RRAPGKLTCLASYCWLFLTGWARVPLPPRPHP
# [15] = system: T31, RRAPGKLT-Lys-LASY-Glu-WLFWTGIA-CONH2
# T31 sequence: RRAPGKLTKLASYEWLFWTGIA
# LTCLASYCWLF = system: T32, LTCLASYCWLF
# T32 sequence: LTCLASYCWLF
# [16] = system: T33, PRIRTVGPGSRSASGKLTCLASYCWLFWSGIA
# T33 sequence: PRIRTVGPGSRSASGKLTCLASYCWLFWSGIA
# RRAPGKLTCLASYCWLFWTGiA [17] = system: T34, RRAPGKLTCLASYCWLFWTGiA
# T34 sequence: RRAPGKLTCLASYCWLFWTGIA
# ALTCLASYCWLF = system: T35, ALTCLASYCWLF
# T35 sequence: ALTCLASYCWLF
# KLTCLASY-HCy-WLF = system: T36, KLTCLASY-HCy-WLF
# T36 sequence: KLTCLASYXWLF
# PGKLQCLASYCWLFWTGIA = system: T37, PGKLQCLASYCWLFWTGIA
# T37 sequence: PGKLQCLASYCWLFWTGIA
# [18] = system: T38, C(Acm)GGGGfpipR-PEG5-rRAPGKLTCLASYCWLFWTGIA
# T38 sequence: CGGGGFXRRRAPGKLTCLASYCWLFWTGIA
# [19] = system: T39, RRAPGKLTCLASYCWLF VTGTA HAPRVAPAPA
# T39 sequence: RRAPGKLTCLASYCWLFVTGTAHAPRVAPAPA
# KLTCLASYCWLA = system: T40, KLTCLASYCWLA
# T40 sequence: KLTCLASYCWLA
# [20] = system: T41, RRAPGKLTCL-MeAla-SYCWLFWTGIA
# T41 sequence: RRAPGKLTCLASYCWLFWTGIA
# [21] = system: T42, PNLLRVRTSE VRNPG KLTCLASYCWLFWTGIA
# T42 sequence: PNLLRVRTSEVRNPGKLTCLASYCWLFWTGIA
# KLTCLASYCWIF = system: T43, KLTCLASYCWIF
# T43 sequence: KLTCLASYCWLF
# KLT-Dap-LASY-Glu-WLF = system: T44, KLT-Dap-LASY-Glu-WLF
# T44 sequence: KLTXLASYEWLF
# KLTCLASYCWAF = system: T45, KLTCLASYCWAF
# T45 sequence: KLTCLASYCWAF
# [22] = system: T46, Glu(Biotinyl-PEG)-RAPGKLTCLASYCWLFWTGIA
# T46 sequence: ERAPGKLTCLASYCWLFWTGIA
# RRRKLTCLASYCWLFRRR = system: T47, RRRKLTCLASYCWLFRRR
# T47 sequence: RRRKLTCLASYCWLFRRR
# RYQRARLTCLASYCGLLFSMSA = system: T48, RYQRARLTCLASYCGLLFSMSA
# T48 sequence: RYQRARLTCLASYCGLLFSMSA
# compound 19 = system: T49, compound 19
# T49 sequence: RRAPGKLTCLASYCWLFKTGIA
# [23] = system: T50, CRRAPGKLQCLASYCWLFWTGIAGGSGGC
# T50 sequence: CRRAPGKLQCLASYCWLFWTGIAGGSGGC
# RRAPGKLTCLASyCWLFWTGIA [24] = system: T51, RRAPGKLTCLASyCWLFWTGIA
# T51 sequence: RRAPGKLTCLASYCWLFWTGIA
# ALTCLAAYCALF = system: T52, ALTCLAAYCALF
# T52 sequence: ALTCLAAYCALF
# [25] = system: T53, RRAPGKLTCLASYCWLF WTGWA VLARVPVGWT
# T53 sequence: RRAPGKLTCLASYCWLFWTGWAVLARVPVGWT
# For Vmax (mOD/min min), with phospholipids in this document: test concentration or dose not given here.
# For Vmax (mOD/min min), without phospholipids in this document: test concentration or dose not given here.
substance,measurement,setting,value
human Factor IXa,"Vmax, FXa generation assay",[1],> 2
same,"Vmax, FXa generation assay; (++) means 1-2",[2],(++)
same,"Vmax, FXa generation assay",[3],> 3
same,"Vmax, FXa generation assay",[4],> 3
same,"Vmax, FXa generation assay",[5],> 3
same,"Vmax, FXa generation assay; (++) means 1-2",rRAPGKLTCLASSCWLFWTGIA,(++)
same,"Vmax, FXa generation assay",k-MeLeu-TCLASYCWLA,> 2
same,"Vmax, FXa generation assay",[6],> 3
same,"Vmax, FXa generation assay",RCAQSRLPWLVSYCWLFSPYGM,> 1.5
same,"Vmax, FXa generation assay",[7],> 2
same,"Vmax, FXa generation assay; (++) means 1-2",GVEDRQLTCLASSCWVFSRHSV,(++)
same,"Vmax, FXa generation assay",Dpr-LTCLASYCWLF,> 2
same,"Vmax, FXa generation assay",[8],> 0.5
same,"Vmax, FXa generation assay",K-k-MeLeu-TCLASYCWLF,> 3
same,"Vmax, FXa generation assay",[9],> 2
same,"Vmax, FXa generation assay",KITCLASYCWLF,> 2
same,"Vmax, FXa generation assay",[10],> 3
same,"Vmax, FXa generation assay",[11],> 2
same,"Vmax, FXa generation assay; (++) means 1-2",Ac-KLTCLASYCWLF,(++)
same,"Vmax, FXa generation assay",KLTCLASYCFLF,> 3
same,"Vmax, FXa generation assay",KLTCLASYCALF,> 3
same,"Vmax, FXa generation assay; (++) means 1-2",KLT-Dab-LASY-Glu-WLF,(++)
same,"Vmax, FXa generation assay; (++) means 1-2",VSGTGRLTCVASYCWMFQLGIF,(++)
same,"Vmax, FXa generation assay; (++) means 1-2",KLTCLKSYCWLF,(++)
same,"Vmax, FXa generation assay",[12],> 2
same,"Vmax, FXa generation assay; (++) means 1-2",KLTCLAAYCWLF,(++)
same,"Vmax, FXa generation assay",HMQWGKLPCLASYCWLFWYGIG,> 2
same,"Vmax (mOD/min min), with phospholipids",compound 2,4.22 mOD/min min
same,"Vmax (mOD/min min), without phospholipids",compound 2,3.05 mOD/min min
same,"Vmax, FXa generation assay",compound 2,> 3
same,"Vmax, FXa generation assay with hFIXa",compound 2,> 3
same,"Vmax, FXa generation assay; (++) means 1-2",[13],(++)
same,"Vmax, FXa generation assay; (++) means 1-2",[14],(++)
same,"Vmax, FXa generation assay; (++) means 1-2",[15],(++)
same,"Vmax, FXa generation assay; (++) means 1-2",LTCLASYCWLF,(++)
same,"Vmax, FXa generation assay",[16],> 3
same,"Vmax, FXa generation assay; (++) means 1-2",RRAPGKLTCLASYCWLFWTGiA [17],(++)
same,"Vmax, FXa generation assay; (++) means 1-2",ALTCLASYCWLF,(++)
same,"Vmax, FXa generation assay",KLTCLASY-HCy-WLF,> 3
same,"Vmax, FXa generation assay",PGKLQCLASYCWLFWTGIA,> 2
same,"Vmax, FXa generation assay",[18],> 3
same,"Vmax, FXa generation assay",[19],> 3
same,"Vmax, FXa generation assay",KLTCLASYCWLA,> 3
same,"Vmax, FXa generation assay; (++) means 1-2",[20],(++)
same,"Vmax, FXa generation assay; (++) means 1-2",[21],(++)
same,"Vmax, FXa generation assay",KLTCLASYCWIF,> 3
same,"Vmax, FXa generation assay; (++) means 1-2",KLT-Dap-LASY-Glu-WLF,(++)
same,"Vmax, FXa generation assay",KLTCLASYCWAF,> 2
same,"Vmax, FXa generation assay",[22],> 0.8
same,"Vmax, FXa generation assay; (++) means 1-2",RRRKLTCLASYCWLFRRR,(++)
same,"Vmax, FXa generation assay",RYQRARLTCLASYCGLLFSMSA,> 0.5
same,"Vmax, FXa generation assay with hFIXa",compound 19,> 2
same,"Vmax, FXa generation assay",[23],> 2
same,"Vmax, FXa generation assay",RRAPGKLTCLASyCWLFWTGIA [24],> 2
same,"Vmax, FXa generation assay; (++) means 1-2",ALTCLAAYCALF,(++)
same,"Vmax, FXa generation assay",[25],> 2
